Patent US12624112 (MABWELL SHANGHAI BIOSCIENCE, dated 2026)
Where two headings read alike, the source gives them in different places.

T1: ST2 on the effector cells (KU812, KU812/NF-κB-1#, HUVEC, HMC-1) (human, UniProt Q01638 19-556)
T1 sequence (looked up): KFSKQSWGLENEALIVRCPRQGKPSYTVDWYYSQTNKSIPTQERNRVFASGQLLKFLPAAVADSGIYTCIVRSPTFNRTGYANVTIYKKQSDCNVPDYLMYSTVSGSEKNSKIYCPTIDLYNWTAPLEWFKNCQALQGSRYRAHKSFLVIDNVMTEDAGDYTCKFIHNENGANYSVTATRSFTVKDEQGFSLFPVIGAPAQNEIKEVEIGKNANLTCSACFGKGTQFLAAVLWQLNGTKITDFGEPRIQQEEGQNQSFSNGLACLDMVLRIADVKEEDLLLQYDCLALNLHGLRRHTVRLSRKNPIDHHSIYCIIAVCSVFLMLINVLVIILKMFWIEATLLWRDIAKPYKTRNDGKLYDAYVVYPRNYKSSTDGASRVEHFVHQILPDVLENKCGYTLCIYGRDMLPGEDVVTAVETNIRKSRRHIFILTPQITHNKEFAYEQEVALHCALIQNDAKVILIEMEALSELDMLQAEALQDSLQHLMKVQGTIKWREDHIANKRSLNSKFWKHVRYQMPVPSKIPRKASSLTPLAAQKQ

T2: Human ST2-his (human, UniProt Q01638-2 19-328, limits assumed)
T2 construct: Expressed in CHO-K1; The printed range starts at Met1; also called human ST2 fused with a 6-histidine tag at the C-terminus
T2 sequence: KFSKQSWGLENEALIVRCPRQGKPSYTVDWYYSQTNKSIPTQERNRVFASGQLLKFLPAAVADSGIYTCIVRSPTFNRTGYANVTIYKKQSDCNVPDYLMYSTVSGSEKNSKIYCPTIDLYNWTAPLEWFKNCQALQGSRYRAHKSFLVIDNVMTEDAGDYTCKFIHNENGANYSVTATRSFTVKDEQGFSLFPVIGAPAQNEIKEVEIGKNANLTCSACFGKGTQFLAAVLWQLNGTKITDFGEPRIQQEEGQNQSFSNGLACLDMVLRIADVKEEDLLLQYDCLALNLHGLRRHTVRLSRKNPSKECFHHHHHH

B1: 5888-153-H2L0 (antibody, human IgG4 S228P, kappa, V domains shown)
VH: QVQLVQSGAEVKKPGASVKVSCKASGYTFTDYELHWVRQAPGQGLEWMGTIDPETGDTVYNQKFKARVTMTADKSTSTAYMELSSLRSEDTAVYYCTRAFYNDYDEGFAYWGQGTLVTVSS
VL: EIVLTQSPATLSLSPGERATLSCSVSSSVSYMHWYQQKPGQAPRLLIYDTSKLASGIPARFSGSGSGTDFTLTISSLEPEDFAVYYCQQWNSSPLTFGGGTKVEIKR
B2: 5888-153-H2L1 (antibody, human IgG4 S228P, kappa, V domains shown)
VH: QVQLVQSGAEVKKPGASVKVSCKASGYTFTDYELHWVRQAPGQGLEWMGTIDPETGDTVYNQKFKARVTMTADKSTSTAYMELSSLRSEDTAVYYCTRAFYNDYDEGFAYWGQGTLVTVSS
VL: EIVMTQSPATLSLSPGERATLSCSVSSSVSYMHWYQQKPGQAPRRLIYDTSKLASGIPARFSGSGSGTDYTLTISSLEPEDAAVYYCQQWNSSPLTFGGGTKVEIKR
B3: 5888-153-H3L2 (antibody, human IgG4 S228P, kappa, V domains shown)
VH: QVQLVQSGAEVKKPGASVKVSCKASGYTFTDYELHWVRQAPGQGLEWMGTIDPETGDTVYNQKFKARVTMTADKSTSTAYMELSSLRSEDTAVYYCTRAFYNDYDDAFAYWGQGTLVTVSS
VL: EIVMTQSPATLSLSPGERATLSCSVSSSVSYMHWYQQKPGQAPRRLIYDTSKLASGIPARFSGSGSGTDYTLTISSLEPEDAAVYYCQQWNTSPLTFGGGTKVEIKR
notes: Humanized antibody
B4: 5888-379-H2L2 (antibody, human IgG4 S228P, kappa, V domains shown)
VH: QVQLVQSGAEVKKPGASVKVSCKASGYTFINYGMNWVRQAPGQRLEWMGWINTYIGEPTYGDNFKGRVTITRDTSASTAYMELSSLRSEDTAVYYCAREGDAFAYWGQGTLVTVSS
VL: DIVMTQSPDSLAVSLGERATINCKSSQSLLYSGNQNNYLAWYQQKPGQPPKLLIYGASTRESGVPDRFSGSGSGTDFTLTISSLQAEDVAVYYCQNDHSYPYTFGGGTKVEIKR
notes: Humanized antibody
B5: Control antibody CNTO7160 (antibody, human IgG4 S228P, kappa, V domains shown)
VH: EVQLLESGGGLVQPGGSLRLSCAASGFTFSIYDMIWVRQAPGKGLEWVSSIRGEGGGTYYADSVKGRFTISRDNSKNTLYLQMNSLRAEDTAVYYCARDPWSTEGSFFVLDYWGQGTLVTVSS
VL: EIVLTQSPATLSLSPGERATLSCRASQSVDDDLAWYQQKPGQAPRLLIYDASNRATGIPARFSGSGSGTDFTLTISSLEPEDFAVYYCQQYITAPLTFGQGTKVEIKR
notes: Known anti-ST2 control antibody

Legend:
[1] = molecular target: Human ST2-fc (human) (UniProt Q01638); test: competition ELISA: human ST2-fc coated, antibody titrated in a mixture with human IL33-his (blocked ligand), bound IL33-his detected with an anti-His secondary antibody, OD450-OD650 [continued), 9-7]
[2] = molecular target: Human ST2-fc (human) (UniProt Q01638); test: competition ELISA, coated ST2-fc, competitor IL33-his
[3] = molecular target: Human ST2-fc (human) (UniProt Q01638); test: competition ELISA: human ST2-fc coated, antibody titrated in a mixture with human IL33-his (blocked ligand), bound IL33-his detected with an anti-His secondary antibody, OD450-OD650 [continued), 9-5]
[4] = molecular target: Human ST2-fc (human) (UniProt Q01638); test: competition ELISA: human ST2-fc coated, antibody titrated in a mixture with human IL33-his (blocked ligand), bound IL33-his detected with an anti-His secondary antibody, OD450-OD650 [continued), 9-4]
[5] = molecular target: T1, ST2 on the effector cells (KU812, …); test: cell-based or functional assay
[6] = molecular target: T1, ST2 on the effector cells (KU812, …); test: cell-based or functional assay; remark: listed apart in the source
[7] = molecular target: T1, ST2 on the effector cells (KU812, …); test: cell-based or functional assay; remark: listed apart in the source
[8] = molecular target: T1, ST2 on the effector cells (KU812, …); test: cell-based or functional assay; remark: listed apart in the source
[9] = molecular target: T2, Human ST2-his; test: SPR Biacore X100, antibody captured on protein A chip, human ST2-his injected, pH 7.4
In short: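 Antibody (2 µg/mL) captured 60 s on protein A; human ST2-his injected at six 2-fold dilutions from 20 nM, association 180 s, dissociation 700 s. Kinetics fitted to 1:1 binding model; glycine pH 2.0 regeneration.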

[10] = molecular target: T1, ST2 on the effector cells (KU812, …); test: cell-based or functional assay; remark: listed apart in the source
[11] = molecular target: Human ST2-fc (human) (UniProt Q01638); test: competition ELISA, coated ST2-fc, competitor IL33-his; remark: listed apart in the source
[12] = molecular target: T2, Human ST2-his; test: SPR Biacore X100, antibody captured on protein A chip, human ST2-his injected, dissociation at pH 5.5
Protocol: (§1) The experiment on the interaction between the anti-human ST2 antibodies and human ST2-his was performed using Biacore X100.
(§2) Each anti-human ST2 antibody was diluted to 2 µg/mL and captured on the surface of a protein A chip for a capture time of 60 s. Following the antibody capture, a solution of human ST2-his (2-fold gradient dilution from a starting concentration of 20 nM, to obtain 6 concentrations in total) was injected. Association was monitored for 180 s and dissociation was monitored for 700 s, and the sensor surface was regenerated by injecting a solution of glycine at pH 2.0. Kinetic data were analyzed using a simple 1:1 binding model.

[13] = molecular target: T2, Human ST2-his; test: SPR Biacore X100, ratio of kd at pH 5.5 to kd at pH 7.4
Protocol: as §1, §2

[14] = molecular target: T1, ST2 on the effector cells (KU812, …); test: cell-based or functional assay; remark: listed apart in the source
[15] = molecular target: T2, Human ST2-his; test: SPR Biacore X100, antibody captured on protein A chip, human ST2-his injected, pH 7.4; pH 7.4
Protocol: as §1, §2

Molecule | Maximum inhibition rate [2] | IC50 (read off the curve) [4] | IC50, inhibition of activation of KU812-NF-κB reporter gene by IL33 [5] | Maximum inhibition rate, KU812-NF-κB reporter gene [5] | IC50, inhibition of KU812-IL5 production promoted by oxidized IL33 [6] | Maximum inhibition rate, KU812-IL5 production by oxidized IL33 [6] | Relative activity, KU812-IL5 production by oxidized IL33 [6] | IC50, inhibition of HUVEC-IL6 production promoted by IL33 [7] | Maximum inhibition rate, HUVEC-IL6 production by IL33 [7] | Relative activity, HUVEC-IL6 production by IL33 [7] | IC50, inhibition of HMC-1 IL8 production promoted by IL33 [8] | Maximum inhibition rate, HMC-1 IL8 production by IL33 [8] | Kd [9] | koff [9] | kon [9] | Maximum inhibition rate, KU812-IL5 production by IL-33 [10] | Kd [12] | koff [12] | kon [12] | kd ratio of pH 5.5/pH 7.4 [13] | further results
Control antibody CNTO7160 | 92.5% |  |  |  |  |  |  |  |  |  |  |  |  |  |  |  |  |  |  |  | IC50 (read off the curve) [1]: 0.9 µg/mL; IC50 (read off the curve) [3]: 1 µg/mL
B1 |  | 3 µg/mL |  |  |  |  |  |  |  |  |  |  |  |  |  |  |  |  |  |  | 
B2 |  | 2 µg/mL |  |  |  |  |  |  |  |  |  |  |  |  |  |  |  |  |  |  | 
B3 |  |  | 0.0553 µg/mL | 88.1% | 0.0173 µg/mL | 101% | 127% | 3.69 µg/mL | 91.8% | 73.9% | 0.0944 µg/mL | 83.3% | 104 pM | 0.000171 s⁻¹ | 1.65e+06 M⁻¹ s⁻¹ | 94.2% | 131 pM | 0.000245 s⁻¹ | 1.87e+06 M⁻¹ s⁻¹ | 1.43 | Relative activity compared with CNTO7160, KU812-NF-κB reporter gene [5]: 362%; Relative activity, HMC-1 IL8 production by IL33 [8]: 107%; IC50, inhibition of KU812-IL5 production promoted by IL-33 (human IL33-his) [10]: 0.0755 µg/mL; Relative activity compared with CNTO7160, KU812-IL5 production by IL-33 [10]: 142%; IC50 [11]: 0.828 µg/mL; Maximum inhibition rate [11]: 93.7%; Relative activity compared with CNTO7160 [11]: 152%; IC50, inhibition of KU812-IL5 production promoted by reduced IL33 [14]: 0.522 µg/mL; Maximum inhibition rate, KU812-IL5 production by reduced IL33 [14]: 87.2%; Relative activity, KU812-IL5 production by reduced IL33 [14]: 281%
B4 | 86% |  |  |  |  |  |  |  |  |  |  |  | 515 pM | 0.000702 s⁻¹ | 1.36e+06 M⁻¹ s⁻¹ | 97.9% | 2670 pM | 0.0269 s⁻¹ | 1.01e+07 M⁻¹ s⁻¹ | 38.4 | IC50, inhibition of KU812-IL5 production promoted by IL-33 (human IL33-his) [10]: 0.0948 µg/mL; Relative activity compared with CNTO7160, KU812-IL5 production by IL-33 [10]: 107%; IC50 [2]: 0.402 µg/mL; Relative activity compared with CNTO7160 [2]: 219%
B5 |  |  | 0.2 µg/mL | 88.2% | 0.0221 µg/mL | 98.9% | 100% | 2.73 µg/mL | 66.6% | 100% | 0.101 µg/mL | 82.3% |  | 0.000175 s⁻¹ | 763000 M⁻¹ s⁻¹ | 97.5% | 395 pM | 0.000267 s⁻¹ | 676000 M⁻¹ s⁻¹ | 1.53 | Kd [15]: 229 pM; IC50, inhibition of KU812-IL5 production promoted by reduced IL33 [14]: 1.47 µg/mL; Maximum inhibition rate, KU812-IL5 production by reduced IL33 [14]: 97.3%; Relative activity, KU812-IL5 production by reduced IL33 [14]: 100%
